The values that follow come from US10124035B2, “DISC-1 pathway activators in the control of neurogenesis” (Massachusetts Institute of Technology, priority 2008, dated 2018).

The target of series [1] is T1, GSK3β (Homo sapiens, UniProt P49841).
T1 construct: GST; purchased Active Motif (Carlsbad, Calif.)
Description: GSK3β in vitro kinase assay (β-catenin/axin phosphorylation, Y216 autophosphorylation). The settings on record: for inhibition of GSK3β / inhibition of GSK3β kinase activity by peptides: in vitro kinase assay; for inhibition of GSK3β kinase activity by peptides: dose-response or comparison. The format is biochemical. From the text:
(§1) • Mice. Swiss Webster pregnant female mice were purchased from Taconic (Hudson, N.Y.). • Cell Culture. AHPs were kindly provided by Dr. Gage (Lie, D. C. et al. Wnt signaling to regulates adult hippocampal neurogenesis. Nature 437, 1370-5 (2005)) and cultured under conditions described previously (Palmer, T. D., Takahashi, J. & Gage, F. H. The adult rat hippocampus contains primordial neural stem cells. Mol Cell Neurosci 8, 389-404 (1997)). Primary neural progenitors were isolated from E14 mouse embryos and cultured as described previously (Sanada, K. & Tsai, L. H. G protein betagamma subunits and AGS3 control spindle orientation and asymmetric cell fate of cerebral cortical progenitors. Cell 122, 119-31 (2005)). N2a and 293T cells were cultured in DMEM medium containing 10% FBS, L-glutamine, and penicillin/streptomycin. Wnt3a expressing L cells and untransfected L cells were obtained from ATCC (Manassas, Va.). Wnt3a conditional medium was produced according to the ATCC protocol. To induce AHP differentiation, FGF2 was removed from the culture medium and 1 μM retinoic acid/1% FBS was added to the medium for 4 days. • Reagents. Recombinant Wnt3a protein was obtained from Chemicon (Rosemont, Ill.). FGF2 was obtained from PeproTech (Rocky Hill, N.J.). Recombinant GST-GSK3β was obtained from Active Motif (Carlsbad, Calif.). Recombinant GST-β-catenin and GST-axin were obtained from Millipore (Billerica, Mass.). The GSK313 inhibitor, SB-216763, AR-A104418 and His-GSK3β, were obtained from Sigma-Aldrich (Sigma-Aldrich, St. Louis, Mo.). L803-MTS was obtained from Calbiochem (San Diego, Calif.). GST-AKT1 was obtained from Cell Signaling (Beverly, Mass.). GST-CASK-1 (CASK fragment from 316-415aa), GST-CASK-2 (CASK fragment from 777-974aa), and GST-p25 proteins were kindly provided by Dr. B. A. Samuels. Mouse DISC1 peptidel (40-78aa: GYMRSTAGSG IGFLSPAVGMPHPSSAG LTGQQSQHSQS; SEQ ID NO: 1) and Mouse DISC1 peptide 2 (195-238aa, […] GERGEAEGCLPSREAE; SEQ ID NO: 2) were synthesized by Chi Scientific (Maynard, Mass.). • Antibodies. The primary antibodies used in this study were the following: rabbit anti-DISC1 C-terminal antibody, mouse and rabbit anti-GFP antibodies (Invitrogen, Carlsbad, Calif.); affinity purified rabbit anti-DISC1 antibody (Novus, Littleton, Colo.) for immunohistochemistry; mouse anti-FLAG and mouse anti-Actin antibody; mouse anti-GSK3β antibody, mouse anti-β-catenin antibody, mouse anti-pY216 GSK3β antibody, and mouse anti-nestin antibody (BD Biosciences, San Diego, Calif.); rabbit anti-[…] β-catenin antibody, rabbit anti-pS9 GSK3β antibody, and mouse anti-cyclin to D1 antibody (Cell Signaling); mouse anti-Dv12 antibody, mouse anti-HA antibody, mouse anti-GST antibody, mouse anti-ubiquitin antibody, and rabbit anti-β-catenin antibody (Santa Cruz, Santa Cruz, Calif.); mouse Tuj-1 antibody (BABCO, Harrisburg, Pa.); mouse anti-BrdU antibody (DakoCytomation, Glostrup, Denmark); guinea pig anti-doublecortin antibody (Chemicon, Rosemont, Ill.); chicken anti-GFP antibody (Ayes Labs, Tigard, Oreg.); rabbit anti-pS10 Histone H3 antibody (Upstate, Lake Placid, N.Y.). • Constructs. The sequences for shRNAs targeting DISC1 are as follows: control shRNA: 5′-CGGCTGAAACAAGAGTTGG-3′ (SEQ ID NO:3); DISC1 shRNA-1: 5′-GGCAAACACTGTGA AGT GC-3′ (SEQ ID NO:4); DISC1 shRNA-2: 5′-[…]-3′ (SEQ ID NO:5)(Kamiya A. et al. A schizophrenia-associated mutation of DISC1 perturbs cerebral cortex development. Nat. Cell Biol 7, 1167-78 (2005)). DISC1 shRNA-1 recognizes both rat and mouse DISC1. […]

Series [2] addresses T1, GSK3β. Description: GSK3β SPR (surface plasmon resonance) binding assay. The following applies: for percent theoretical maximal response (binding to GSK3β): concentration of 25 μM. As to the method: FIG. 16B is a schematic of overlapping 15-mer peptides that covered peptide 2 and a graph showing the ability of the peptides to bind to GSK3β.
Surface plasmon resonance (SPR) was used to determine whether peptide 2 directly binds to GSK3β. GSK3β SPR binding assays were carried out with peptide 1, peptide 2, the GSK3β inhibitor L803-MTS, and as a negative control, a peptide from the N-type calcium channel, CACNA1B (FIG. 6A). […] To identify the peptide 2 sequences that mediate this interaction with GSK3β, we designed overlapping 15-mer peptides that covered peptide 2 and tested their binding to GSK3β SPR (FIG. 16B).
(In SPR one partner is held on a chip, and binding of the other changes the refractive index at the surface.)

The test system of series [3] is TCF reporter in 293T cells. Description: TCF reporter activity in DISC1 knockdown 293T cells with Wnt3a conditional medium. The format is cell-based. The settings on record: 16 hours. The protocol:
Primary neural stem cells from E14 brains were infected with control or DISC1 shRNA lentiviruses. 48 hours after to transduction, cells were treated with vehicle or SB-216763 (5 μM) for 16 hours and then pulsed with 10 μM BrdU for 2 hours. Shown is percentage of GFP and BrdU double positive cells to total GFP positive cells (n=3, p<0.05). b. […] 1.5 μg of vector or WT-DISC1 was cotransfected with 0.5 μg control or DISC1 shRNA-2, 0.1 μg TCF reporter, and 10 ng pRL-TK vector into 293T cells. 48 hours after transfection, Wnt3a conditional medium with vehicle, SB-216763, or AR-A104418 was added for another 16 hours.
• Mice. Swiss Webster pregnant female mice were purchased from Taconic (Hudson, N.Y.). • Cell Culture. AHPs were kindly provided by Dr. Gage (Lie, D. C. et al. Wnt signaling to regulates adult hippocampal neurogenesis. Nature 437, 1370-5 (2005)) and cultured under conditions described previously (Palmer, T. D., Takahashi, J. & Gage, F. H. The adult rat hippocampus contains primordial neural stem cells. Mol Cell Neurosci 8, 389-404 (1997)). Primary neural progenitors were isolated from E14 mouse embryos and cultured as described previously (Sanada, K. & Tsai, L. H. G protein betagamma subunits and AGS3 control spindle orientation and asymmetric cell fate of cerebral cortical progenitors. Cell 122, 119-31 (2005)). N2a and 293T cells were cultured in DMEM medium containing 10% FBS, L-glutamine, and penicillin/streptomycin. Wnt3a expressing L cells and untransfected L cells were obtained from ATCC (Manassas, Va.). Wnt3a conditional medium was produced according to the ATCC protocol. To induce AHP differentiation, FGF2 was removed from the culture medium and 1 μM retinoic acid/1% FBS was added to the medium for 4 days. • Reagents. Recombinant Wnt3a protein was obtained from Chemicon (Rosemont, Ill.). FGF2 was obtained from PeproTech (Rocky Hill, N.J.). Recombinant GST-GSK3β was obtained from Active Motif (Carlsbad, Calif.). Recombinant GST-β-catenin and GST-axin were obtained from Millipore (Billerica, Mass.). […]

Series [4] has as its system neural progenitors in embryonic mouse brains. Briefly: In utero electroporation of shRNA into E13 embryonic mouse brains. The format is in vivo.
From the text: as §1

The next series deals with AHPs. Description: Immunoblot of β-catenin and cyclin D1 in transduced AHPs. The format is cell-based. The text has this: • Mice. Swiss Webster pregnant female mice were purchased from Taconic (Hudson, N.Y.). • Cell Culture. AHPs were kindly provided by Dr. Gage (Lie, D. C. et al. Wnt signaling to regulates adult hippocampal neurogenesis. Nature 437, 1370-5 (2005)) and cultured under conditions described previously (Palmer, T. D., Takahashi, J. & Gage, F. H. The adult rat hippocampus contains primordial neural stem cells. Mol Cell Neurosci 8, 389-404 (1997)). Primary neural progenitors were isolated from E14 mouse embryos and cultured as described previously (Sanada, K. & Tsai, L. H. G protein betagamma subunits and AGS3 control spindle orientation and asymmetric cell fate of cerebral cortical progenitors. Cell 122, 119-31 (2005)). N2a and 293T cells were cultured in DMEM medium containing 10% FBS, L-glutamine, and penicillin/streptomycin. Wnt3a expressing L cells and untransfected L cells were obtained from ATCC (Manassas, Va.). Wnt3a conditional medium was produced according to the ATCC protocol. To induce AHP differentiation, FGF2 was removed from the culture medium and 1 μM retinoic acid/1% FBS was added to the medium for 4 days. • Reagents. Recombinant Wnt3a protein was obtained from Chemicon (Rosemont, Ill.). FGF2 was obtained from PeproTech (Rocky Hill, N.J.). Recombinant GST-GSK3β was obtained from Active Motif (Carlsbad, Calif.). Recombinant GST-β-catenin and GST-axin were obtained from Millipore (Billerica, Mass.). The GSK313 inhibitor, SB-216763, AR-A104418 and His-GSK3β, were obtained from Sigma-Aldrich (Sigma-Aldrich, St. Louis, Mo.). L803-MTS was obtained from Calbiochem (San Diego, Calif.). GST-AKT1 was obtained from Cell Signaling (Beverly, Mass.). GST-CASK-1 (CASK fragment from 316-415aa), GST-CASK-2 (CASK fragment from 777-974aa), and GST-p25 proteins were kindly provided by Dr. B. A. Samuels. Mouse DISC1 peptidel (40-78aa: GYMRSTAGSG IGFLSPAVGMPHPSSAG LTGQQSQHSQS; SEQ ID NO: 1) and Mouse DISC1 peptide 2 (195-238aa, […] GERGEAEGCLPSREAE; SEQ ID NO: 2) were synthesized by Chi Scientific (Maynard, Mass.). • Antibodies. […]

[5] abbreviates: electroporated at E13, analyzed 3 days later.

T1 sequence (P49841 whole entry): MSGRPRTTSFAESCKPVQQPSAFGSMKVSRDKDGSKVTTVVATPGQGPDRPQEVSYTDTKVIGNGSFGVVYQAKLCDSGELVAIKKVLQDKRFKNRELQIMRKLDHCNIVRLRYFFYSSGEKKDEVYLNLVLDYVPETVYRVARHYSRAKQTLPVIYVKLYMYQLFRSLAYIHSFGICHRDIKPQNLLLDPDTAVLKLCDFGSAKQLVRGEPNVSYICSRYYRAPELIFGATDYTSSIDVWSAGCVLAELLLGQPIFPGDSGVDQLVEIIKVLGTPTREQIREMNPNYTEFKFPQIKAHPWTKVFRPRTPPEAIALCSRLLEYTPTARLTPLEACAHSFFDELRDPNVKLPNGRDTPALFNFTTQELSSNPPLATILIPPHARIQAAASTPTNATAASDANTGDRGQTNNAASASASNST

Turning to “peptide 2: Mouse DISC1 peptide, 195-238aa, PADIASLPGFQDTFTSSFSFIQLSLGAAGERGEAEGCLPSREAE, SEQ ID NO: 2 (listed as Mus musculus)”, the “inhibition of GSK3β” value was “did not inhibit GSK3β” in the series with GSK3β [1] (at 1 μM) and “inhibited GSK3β” with GSK3β [1] (at 10 μM). Moreover, the “inhibition of GSK3β kinase activity by peptides” value (“inhibition … by peptides” below) with GSK3β [1] (no single concentration) is “inhibited GSK3β more potently than the commercial GSK3β peptide inhibitor, L803-MTS”; with GSK3β [1] (no single concentration, listed as DISC1 peptide 1(195-238aa)) it was “dose-dependent”; with GSK3β [1] (no single concentration, listed as Peptide 195-238), “inhibited GSK3β in a dose-dependent manner more potently than the commercial peptide inhibitor, L803-MTS”. Also, the “percent theoretical maximal response (binding to GSK3β)” value with GSK3β [2] is given as 197%.
Turning to `COc1ccc(CNC(=O)Nc2ncc([N+](=O)[O-])s2)cc1` [AR-A014418], the “TCF reporter activity in DISC1 knockdown cells” value is on record as “rescued TCF activity in DISC1 knockdown cells to control levels” in series [3] and “rescues the TCF activation defect caused by DISC1 knockdown” in series [3] (listed as AR-A104418).
With “peptide 3: 15-mer peptide that encompasses mDISC1 amino acids 211 to 225 (SFSFIQLSLGAAGER; listed as Mus musculus)”, the “inhibition … by peptides” value with GSK3β [1] (no single concentration) was “failed to inhibit GSK3β kinase activity”. Moreover, the “percent maximal binding to GSK3β” value with GSK3β [2] (15-mer peptide) came to 238%. For the same molecule, the “binding to GSK3β” value in the series with GSK3β [2] (result in words) is listed as “bound to GSK3β”.
For the molecule “peptide 1: Mouse DISC1 peptide, 40-78aa, SEQ ID NO: 1, synthesized by Chi Scientific (GYMRSTAGSGIGFLSPAVGMPHPSSAGLTGQQSQHSQS; listed as Mus musculus)”, in the series with GSK3β [1] (at 80 μM), the “inhibition of GSK3β” value was “did not inhibit GSK3β”. Also, the “inhibition … by peptides” value with GSK3β [1] (no single concentration) was “did not inhibit GSK3β activity”. Further, the “percent theoretical maximal response (binding to GSK3β)” value in the series with GSK3β [2] is reported as 62%.
In the case of “DISC1 shRNA-2: shRNA targeting human, rat and mouse DISC1, SEQ ID NO:5, in pLentiLox 3.7 vector (GCAGGAGGTCAGCAAGGCCTTG)”, the BrdU labeling in series [4] (BrdU 2 hours prior to collection) turned out to be 15.9±2.2%. For the same molecule, in series [4] (electroporated E13, BrdU at E15, collected E16), the “cell cycle exit index” value was 66.5±13.2%. Also, the “GFP+Dcx+ cells” value in series [4] (electroporated E13, sacrificed E16, SVZ) is reported as 42.3±5.8%. In series [4] (setting [5]), the “GFP positive cells in the VZ/SVZ” value is recorded as 10% and the “GFP positive cells in the cortical plate” value is listed as 62%. Moreover, the mitotic index in series [4] (pH3, electroporated E13, sacrificed E15) came out at 3.5±0.8%. Besides, in the series on AHPs, the “reduction of Cyclin D1 levels” value is recorded as 70% and the β-catenin levels is 19 % to control.

B1: DISC1 fragment 221-355: GST-tagged mouse DISC1 protein fragment, amino acids 221-355 (protein, UniProt Q811T9 221-355, looked up, fragment)
chain: AAGERGEAEGCLPSREAEPLHQRPQEMAAEASSSDRPHGDPRHLWTFSLHAAPGLADLAQVTRSSSRQSECGTVSSSSSDTGFSSQDASSAGGRGDQGGGWADAHGWHTLLREWEPMLQDYLLSNRRQLEVTSLI
modifications: GST tag
B1: the “inhibition of GSK3β autophosphorylation (Y216)” value in the series with GSK3β [1] (GST-DISC1 fragments at 2 μM) was “started to inhibit GSK3β autophosphorylation”. In the series with GSK3β [1] (no single concentration, dose dependence, rank), the “inhibition of GSK3β activity by DISC1 fragments” value is listed as “able to inhibit GSK3 activity”.
